Measurements from the DeepSol protein solubility set.

Assay: soluble on expression in E. coli; label from the status in PepcDB or PDB records

Sequence | soluble on expression in E. coli
MSLEINKGEGAVLGKEFFCEEEPGYLIEEEEEKELLEFISSGNLEIDRRLEGGIPAGSLCLLEGANDSGKSIFLQQIIWGALNQDKTVLFLTTEKTSKEVLNQMESLKRGISDYFIIGRSKIFEINAGYVEENPRLSESLLQVLLECIQRCEEELVLIDSLTIFAVNASENAVLNFFTECVKLCDRGKTILISVHGYAFSQAVLYRLRSVCSACLELRIEQVGDQWVKTMEIQKLRGARKTTGNLLSFDVDSEFGLKIIPVSKIKAEGHHHHHH | soluble
MKKSKRKNAQAQEAQETEVLVQEEAEELPEFPEGEPDPDLEDPDLTLEDDLLDLPEEGEGLDLEEEEEDLPIPKISTSDPVRQYLHEIGQVPLLTLEEEVELARKVEEGMEAIKKLSEITGLDPDLIREVVRAKILGSARVRHIPGLKETLDPKTVEEIDQKLKSLPKEHKRYLHIAREGEAARQHLIEANLRLVVSIAKKYTGRGLSFLDLIQEGNQGLIRAVEKFEYKRRFKFSTYATWWIRQAINRAIADQARTIRIPVHMVETINKLSRTARQLQQELGREPTYEEIAEAMGPGWDAKRVEETLKIAQEPVSLETPIGDEKDSFYGDFIPDEHLPSPVDAATQSLLSEELEKALSKLSEREAMVLKLRKGLIDGREHTLEEVGAFFGVTRERIRQIENKALRKLKYHESRTRKLRDFLD | soluble
MGSDKIHHHHHHMSKFINPFTDYGFKLIFGREVSKDLLIEFLNDLLEGERVITDLTFLNNEQLPDYPEGRGIIYDVYCTTDTGEKIIVEMQNRMQSNFKERSIFYLSRAIVNQGRTGHDWKFEIKAVYGVFLMNFIMDKNIKLRTDVILADKETGELFSEKFRQIFIALPLFKKSEEECETNFERWIYILNNMETLKRLPFKARKAVFEKLEEIADVASMSPKERELYDNSVKVYRDYLVTMDAAEKEGIKKGMKEGMKEGLKKGLEEGLEEGLKKGREEALNIFQTAIDMKKQGIDNQLIAEKTGLPLSLIESLK | not soluble
MGSDKIHHHHHHMVLSLSSHNVIQYLQEAGLCSSEDDASDKSELPGSSKNNSDLLVTLADNRKLLVKQEHNVKNNDVAPRELFQEWLFHQLLQQFPVLGNISAIAPLVVHFDEENSILVRNYLSEYLKLATFYHNNEIFPQEIATAIGTTLAGLHRATYNRREYRDFMATAPQGEFRYGFYNPAQGVESIGPEIFGTVPTEALKFYLLYQQSESLESAIADLAYDWNPCCLTHNDLKLNNILVHSRWKKLDNCLVRLINWEACSWGDPAFDLGTLLASYLRIWLNSLVVDPTIELQESLHLALTPLESLQPSIIALIRAYLNAFPMILEYRSDFIVRVIQFAGLALIHQIQDMITCRKSFNNTDICMLQVAKSLLTMPQQGVLTIFGISESEILNPVGKVHKLPQPVKEPQLLRLYYEKTRLRGC | not soluble
MSLNRFTKTSQGRSWNTGNGSPDAICFAVDKPGIVVVGFAVYGGGGIHEYELEVLVDDSEHAGDSTHSHRWTSLELVKGTYTTDDSPSDIAEIRLDKVVPLKENVKYAVRLRNYGSRTANGDGGMTTVQCPDGVTFTFSTCSLSSNGTNQTRGQIPQILYYRSEFDGDLQSQLLSKANEEDKNCSRALSVVSTVVRAAKDLLHRALAVDADEGHHHHHH | not soluble
MGSDKIHHHHHHMPRSPSSQYLAIESLSRYAREERESALGIIRNVLQMSDIAPGRFNAAMQAVAMHGRIALHFHPDRFDSRGLTVAEGLLQDGRYRCQFETHISSGLLSPEIGGARDHWERQFFRELTTDIAARPKYGALDLLLAPNGPAPRFGSCYFLTKPEVLSRATFCFNDSYRNPRDKGTADAFEMVMAALLTESFERRYALGEHGLAPAKLVERLVSTLGEDIVMRFERGLSGNLDHYIEAQIHGPLSLAEDMEALVADPSFRGTEIEPLLRSIAERYQIALYWHSGLCLDVEHVVRDFRGAGMPSLAQRLAIDGNVTAYAIGVAAREVSRFPTRWRARGHKTEVLSELKWLWHLLVRYGAARDERETSFMLDESAPLQENVQAEPGGNDATCVQGTCKEEGFEASVTTEGAHTADAAAAVKDNSAS | not soluble
MGHHHHHHSHMGVPYSVLEPVLERCTPDQLYRIEEYNHVLIEETDQLWKVHCHRDFKEERPEEYESWREMYLRLQDAREQRLRVLTKNIQFAHANKP | soluble
SLAANMYRVGDYVYFENSSSNPYLIRRIEELNKTASGNVEAKVVCFYRRRDISNTLIMLADKHAKEIEEESETTVEADLTDKQKHQLKHRELFLSRQYESLPATHIRGKCSVALLNETESVLSYLDKEDTFFYSLVYDPSLKTLLADKGEIRVGPRYQADIPEMLLEGESDEREQSKLEVKVWDPNSPLTDRQIDQFLVVARAVGTFARALD | soluble
